What all share (assay): BLI
For experiment [1], the target named is A/Panama/2007/1999 H3N2 HA, soluble trimeric (influenza A virus A/Panama/2007/1999 …).
Experiment [2] deals with HA of A/Brisbane/10/2007 (H3N2) virus (influenza A virus A/Brisbane/10/2007 …).
Experiment [3] concerns the target A/Minnesota/11/2010 H3N2v HA, soluble, biotinylated (wild type) (influenza A virus A/Minnesota/11/2010 …).

B1: H3v-47 Fab (Fab, V domains shown)
VH: QVQLVQSGAEVKKPGSSVRVSCKASGDTFSSYSITWVRQAPGHGLQWMGGIFPIFGSTNYAQKFDDRLTITTDDSSRTVYMELTSLRLEDTAVYYCARGASKVEPAAPAYSDAFDMWGQGTLVTVSS
VL: DIVMTQSPGTLSLSPGERATLSCRTSQGVSSSYLAWYQQKPGQAPRLLISGSSSRATGIPDRFSGSGSGRDFTLTISRLEPEDSAVYYCQQYATSPTFGQGTRVEIK
Regarding B1, the Kd in experiment [1] and in experiment [2] was under 5 nM throughout.

B2: H3v-47 IgG (antibody, V domains shown)
VH: B1 VH
VL: B1 VL
B2 gave a Kd in experiment [3] of under 1 pM.

These data come from paper PMC6039445 (2018).
